Km, kcat and kcat/Km data for 9 proteins are collected here from publication PMC10636135, “Computational design of highly efficient thermostable MHET hydrolases and dual enzyme system for PET recycling” (Communications Biology, 2023).

Substrate in series [1]: O=C(O)c1ccc(C(=O)OCCO)cc1
The series can be described thus: initial rates, TPA by HPLC, Michaelis-Menten fit. Format: biochemical, Pseudideonella sakaiensis. The note with it: 50 mM sodium phosphate, pH 7.5, 50 °C.

Substrate in series [2]: O=C(O)c1ccc(C(=O)OCCO)cc1
The series can be described thus: initial rates, TPA by HPLC, Michaelis-Menten fit. The note with it: 50 mM sodium phosphate, pH 7.5, 50 °C, M3. Type of series: biochemical, Geobacillus stearothermophilus. An excerpt:
initial rates, TPA by HPLC, Michaelis-Menten fit on Est30 (1TQH scaffold; wild-type carboxylesterase) | single variants M1 (G130L) and M3 (G130F) (Table S13) had improved catalytic efficiencies

Substrate in series [3]: O=C(O)c1ccc(C(=O)OCCO)cc1
The experiment in a line: initial rates, TPA by HPLC, Michaelis-Menten fit. Type of series: biochemical, Geobacillus stearothermophilus. The note with it: 50 mM sodium phosphate, pH 7.5, 50 °C, 10 min, 0.5 μM enzyme. The source says: initial rates, TPA by HPLC, Michaelis-Menten fit on Est30 (1TQH scaffold; wild-type carboxylesterase)

Substrate in series [4]: O=C(O)c1ccc(C(=O)OCCO)cc1
The series can be described thus: initial rates, TPA by HPLC, Michaelis-Menten fit. Type of series: biochemical, Geobacillus stearothermophilus. The note with it: 50 mM sodium phosphate, pH 7.5, 50 °C, 10 min, 0.5 μM enzyme. The source holds these as a separate data set.

Substrate in the series “MHET hydrolysis kinetics”: O=C(O)c1ccc(C(=O)OCCO)cc1
The experiment in a line: MHET hydrolysis kinetics. Type of series: biochemical, unidentified prokaryotic organism. The note with it: conditions in supplement; pH 7.5; 50.0 °C. An excerpt:
MHET hydrolysis kinetics on LCC-ICCG | (LCC-ICCG and FAST-PETase) had weak catalytic activities with regard to the hydrolysis of MHET

B1: FAST-PETase (Pseudideonella sakaiensis; D186H/N233K/R224Q/R280A/S121E) (protein)
chain: QTNPYARGPNPTAASLEASAGPFTVRSFTVSRPSGYGAGTVYYPTNAGGTVGAIAIVPGYTARQSSIKWWGPRLASHGFVVITIDTNSTLDQPESRSSQQMAALRQVASLNGTSSSPIYGKVDTARMGVMGWSMGGGGSLISAANNPSLKAAAPQAPWHSSTNFSSVTVPTLIFACENDSIAPVNSSALPIYDSMSQNAKQFLEIKGGSHSCANSGNSNQALIGKKGVAWMKRFMDNDTRYSTFACENPNSTAVSDFRTANCS
For the protein B1, in series [1], the Km was 33.87 ± 2.82 mM and the kcat came out at 2.34 ± 0.14 s⁻¹.

B2: Est30 (1TQH scaffold; wild-type carboxylesterase) (Geobacillus stearothermophilus; G129F) (protein)
chain: MKIVPPKPFFFEAGERAVLLLHGFTGNSADVRMLGRFLESKGYTCHAPIYKGHGVPPEELVHTGPDDWWQDVMNGYEFLKNKGYEKIAVAGLSLGGVFSLKLGYTVPIEGIVTMCAPMYIKSEETMYEFVLEYAREYKKREGKSEEQIEQEMEKFKQTPMKTLKALQELIADVRDHLDLIYAPTFVVQARHDEMINPDSANIIYNEIESPVKQIKWYEQSGHVITLDQEKDQLHEDIYAFLESLDW
notes: E. coli BL21(DE3), pET-22b(+) NdeI/XhoI, C-terminal His6 tag kept, HisTrap purified
For the protein B2, in series [2], the Km was 1.12 ± 0.45 mM and the kcat worked out at 0.75 ± 0.05 s⁻¹.

B3: Est30 (1TQH scaffold; wild-type carboxylesterase) (Geobacillus stearothermophilus) (protein)
chain: MKIVPPKPFFFEAGERAVLLLHGFTGNSADVRMLGRFLESKGYTCHAPIYKGHGVPPEELVHTGPDDWWQDVMNGYEFLKNKGYEKIAVAGLSLGGVFSLKLGYTVPIEGIVTMCAPMYIKSEETMYEGVLEYAREYKKREGKSEEQIEQEMEKFKQTPMKTLKALQELIADVRDHLDLIYAPTFVVQARHDEMINPDSANIIYNEIESPVKQIKWYEQSGHVITLDQEKDQLHEDIYAFLESLDW
notes: as for B2
For B3, in series [3], the Km is 8.98 ± 2.49 mM, the kcat is 1.17 ± 0.14 s⁻¹ and the kcat/Km was 130 M⁻¹ s⁻¹.

B4: Est30 (1TQH scaffold; wild-type carboxylesterase) (Geobacillus stearothermophilus; G129F/I170K/M126S) (protein)
chain: MKIVPPKPFFFEAGERAVLLLHGFTGNSADVRMLGRFLESKGYTCHAPIYKGHGVPPEELVHTGPDDWWQDVMNGYEFLKNKGYEKIAVAGLSLGGVFSLKLGYTVPIEGIVTMCAPMYIKSEETSYEFVLEYAREYKKREGKSEEQIEQEMEKFKQTPMKTLKALQELKADVRDHLDLIYAPTFVVQARHDEMINPDSANIIYNEIESPVKQIKWYEQSGHVITLDQEKDQLHEDIYAFLESLDW
notes: as for B2
Turning to B4, in series [4] (M13), the Km is 2.59 ± 0.41 mM, the kcat worked out at 21 ± 0.83 s⁻¹ and the kcat/Km was 8110 M⁻¹ s⁻¹.

B5: Est30 (1TQH scaffold; wild-type carboxylesterase) (Geobacillus stearothermophilus; G129L) (protein)
chain: MKIVPPKPFFFEAGERAVLLLHGFTGNSADVRMLGRFLESKGYTCHAPIYKGHGVPPEELVHTGPDDWWQDVMNGYEFLKNKGYEKIAVAGLSLGGVFSLKLGYTVPIEGIVTMCAPMYIKSEETMYELVLEYAREYKKREGKSEEQIEQEMEKFKQTPMKTLKALQELIADVRDHLDLIYAPTFVVQARHDEMINPDSANIIYNEIESPVKQIKWYEQSGHVITLDQEKDQLHEDIYAFLESLDW
notes: as for B2
On to B5, for which, in series [3] (M1), the Km was 5.36 ± 1.13 mM, the turnover number (kcat) is 2.97 ± 0.21 s⁻¹ and the kcat/Km came to 550 M⁻¹ s⁻¹.

B6: Est30 (1TQH scaffold; wild-type carboxylesterase) (Geobacillus stearothermophilus; G129L/I170K/M126S) (protein)
chain: MKIVPPKPFFFEAGERAVLLLHGFTGNSADVRMLGRFLESKGYTCHAPIYKGHGVPPEELVHTGPDDWWQDVMNGYEFLKNKGYEKIAVAGLSLGGVFSLKLGYTVPIEGIVTMCAPMYIKSEETSYELVLEYAREYKKREGKSEEQIEQEMEKFKQTPMKTLKALQELKADVRDHLDLIYAPTFVVQARHDEMINPDSANIIYNEIESPVKQIKWYEQSGHVITLDQEKDQLHEDIYAFLESLDW
notes: as for B2
As to B6, in series [4] (M14 (KLS-MHETase)), the Km came out at 1.73 ± 0.24 mM, the kcat came to 21.8 ± 0.62 s⁻¹ and the kcat/Km was found to be 12600 M⁻¹ s⁻¹.

B7: Est30 (1TQH scaffold; wild-type carboxylesterase) (Geobacillus stearothermophilus; G129L/I170K) (protein)
chain: MKIVPPKPFFFEAGERAVLLLHGFTGNSADVRMLGRFLESKGYTCHAPIYKGHGVPPEELVHTGPDDWWQDVMNGYEFLKNKGYEKIAVAGLSLGGVFSLKLGYTVPIEGIVTMCAPMYIKSEETMYELVLEYAREYKKREGKSEEQIEQEMEKFKQTPMKTLKALQELKADVRDHLDLIYAPTFVVQARHDEMINPDSANIIYNEIESPVKQIKWYEQSGHVITLDQEKDQLHEDIYAFLESLDW
notes: as for B2
Regarding B7, in series [4] (M8 (KL-MHETase)), the Michaelis constant (Km) amounted to 4.56 ± 0.75 mM, the kcat turned out to be 21.4 ± 1.12 s⁻¹ and the kcat/Km is 4700 M⁻¹ s⁻¹.

B8: Est30 (1TQH scaffold; wild-type carboxylesterase) (Geobacillus stearothermophilus; I170K) (protein)
chain: MKIVPPKPFFFEAGERAVLLLHGFTGNSADVRMLGRFLESKGYTCHAPIYKGHGVPPEELVHTGPDDWWQDVMNGYEFLKNKGYEKIAVAGLSLGGVFSLKLGYTVPIEGIVTMCAPMYIKSEETMYEGVLEYAREYKKREGKSEEQIEQEMEKFKQTPMKTLKALQELKADVRDHLDLIYAPTFVVQARHDEMINPDSANIIYNEIESPVKQIKWYEQSGHVITLDQEKDQLHEDIYAFLESLDW
notes: as for B2
As to B8, in series [4] (M2, substrate range 2-20 mM), the Km is 53.70 ± 34.77 mM, the kcat was 36 ± 18.2 s⁻¹ and the kcat/Km came out at 670 M⁻¹ s⁻¹.

B9: LCC-ICCG (unidentified prokaryotic organism; D238C/F243I/S283C/Y127G) (protein)
chain: QSNPYQRGPNPTRSALTADGPFSVATYTVSRLSVSGFGGGVIYYPTGTSLTFGGIAMSPGYTADASSLAWLGRRLASHGFVVLVINTNSRFDGPDSRASQLSAALNYLRTSSPSAVRARLDANRLAVAGHSMGGGGTLRIAEQNPSLKAAVPLTPWHTDKTFNTSVPVLIVGAEADTVAPVSQHAIPFYQNLPSTTPKVYVELCNASHIAPNSNNAAISVYTISWMKLWVDNDTRYRQFLCNVNDPALCDFRTNNRHCQ
Regarding B9, in the series “MHET hydrolysis kinetics”, the Km was 20.13 ± 3.69 mM and the kcat was 1.41 ± 0.13 s⁻¹.
